For assay [1], the target named is T1, GLP-1 receptor in rat hypothalamic membrane preparations (rat, UniProt P32301 22-463).
T1 construct: whole, on cells; Native receptor in a rat hypothalamic membrane preparation, not intact cells and not a recombinant construct; also called GLP-receptor; GLP-IR
T1 sequence (looked up): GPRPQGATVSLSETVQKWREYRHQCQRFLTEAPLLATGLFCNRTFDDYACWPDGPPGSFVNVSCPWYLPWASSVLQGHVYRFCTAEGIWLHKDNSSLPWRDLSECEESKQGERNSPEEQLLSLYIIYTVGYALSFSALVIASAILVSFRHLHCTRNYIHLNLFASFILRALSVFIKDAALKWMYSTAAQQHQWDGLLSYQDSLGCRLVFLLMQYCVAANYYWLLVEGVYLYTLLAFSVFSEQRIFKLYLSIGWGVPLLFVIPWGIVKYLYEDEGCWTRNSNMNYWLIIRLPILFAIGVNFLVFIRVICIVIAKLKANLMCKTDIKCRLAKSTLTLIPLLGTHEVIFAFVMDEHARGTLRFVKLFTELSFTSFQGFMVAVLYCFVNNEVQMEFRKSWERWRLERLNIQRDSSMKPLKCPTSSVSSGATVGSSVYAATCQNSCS
Kind of assay: competition with [125I]GLP-1 on rat hypothalamic membranes, radioligand displacement. As for the experimental part: (§1) Membranes were incubated at room temperature for 90 min. Bound and free radioactivity were separated by centrifugation (2 min, 4° C.). Pelleted membranes were washed with assay buffer (0.5 ml, ice-cold), and the membranes were centrifuged as described above. The supernatant was removed, and the radioactivity in the pellet was counted using a γ-counter. […] All curves were constructed with points in triplicate. IC₅₀ values were calculated using the Prism 3 program (GraphPad Software, Inc., San Diego, Calif.).
In general terms: In a radioligand displacement assay an active substance lowers the binding of a labelled ligand.

Assay [2] addresses T1, GLP-1 receptor in rat hypothalamic …. Kind of assay: competition with [125I]GLP-1 (100 pM) on rat hypothalamic membranes, radioligand displacement. As for the experimental part: as §1

The term IC50 denotes the midpoint of a concentration-inhibition curve. A high value points to weaker potency. HSQGTFTSDYSKYLDSRRAQDFVQWLMNTKRNKNNIA (Bought from IAF BioChem Pharma) [human oxyntomodulin (OXM)]: the “affinity relative to GLP-1” value in assay [1] was ~2 orders of magnitude weaker than GLP-1. Moreover, the IC50 in assay [2] was determined as 8.2 nM.

Source of the values: US20060189522A1 (IMPERIAL INNOVATIONS, published 2006).
